Experimental data published in patent publication US20150191541A1 (NEOTOPE BIOSCIENCES, published 2015).
Changes are numbered by the printed parent chain. Positions of bridges follow the written chain, without caps; N, C: chain ends. No end group written: not given here.

B1: murine 8A9 antibody (antibody, V domains shown)
VH: QVQLKESGPGLVAPSQSLSITCTVSGFSLTNYAVHWVRQPPGKGLEWLGVIWSGGNTNYNSALMSRLRISKDNSQSQVFLKMNSLQTDDTGMYYCARDRGYYGGIYGFANWGQGTLVTVSS
VL: DIQMTQSPSSLSASLGKRVSLTCRASQEISGYLSWLQQKPDGTIKRLIYAASTSDSGVPKRFSGSRSGSDYSLTISSVESEDFADYYCLQYADYPYTFGGGTKLEIK
notes: Mouse hybridoma antibody; also called m8A9; mouse 8A9 antibody
B2: humanized 8A9 antibody version H7L3 (antibody, V domains shown)
VH: B1 VH with K5Q, E6Q, A13K, I20L, R68T, S76N, M82L, Q86T, D88A, M92V
VL: DIQMTQSPSSLSASVGDRVTITCRASQEISGYLSWLQQKPGKAIKRLIYAASTSDSGVPSRFSGSRSGSDYTLTISSLQPEDFADYYCLQYADYPYTFGGGTKVEIK
notes: also called H8A9-H7L3

How the values were obtained:
[1] = target: T1, peptide of amino acid residues 1-10 of IAPP (human, disulfide 2-7); assay: epitope mapping
T1 construct: also called IAPP 1-10
T1 peptide: KCNTATCATQ

[2] = target: T2, human islet-amyloid polypeptide (IAPP) (human); assay: ELISA screen of hybridomas on IAPP
T2 construct: also called hIAPP; amylin
T2 peptide: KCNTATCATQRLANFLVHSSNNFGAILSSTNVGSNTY

[3] = target: T3, rat IAPP (rat, UniProt P12969 38-74); assay: Biacore SPR, antibody captured on anti-human CM5 chip, rat IAPP as analyte
T3 construct: also called rat islet-amyloid polypeptide
T3 peptide (looked up): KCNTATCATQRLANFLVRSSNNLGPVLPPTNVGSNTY
Description: The affinity of various combinations of 8A9 humanized heavy chains and humanized light chain proteins for hIAPP was analyzed on a Biacore instrument. Biacore analysis was performed by preparing an anti-human CM5 chip following the protocol provided in the kit. The 8A9 antibody was captured such that the maximum binding of rat IAPP would not exceed 20-30 RU. […] Data was blank subtracted to both an irrelevant sensor not containing 8A9 and 0 IAPP concentration to account for the dissociation of 8A9 from the anti-human capture. Data was then analyzed using a global 1:1 fit.

Binder | binding result [1] | binding result [2] | fold difference of affinity against murine 8A9 [3] [fold]
B1 | binds | binds | 
B2 |  |  | < 2
